Assay results published in US20110301228.

Biological target: native rat tail collagen type I (BD Biosciences), P02454
Sequence (P02454 152-1207, chain 1 of 2): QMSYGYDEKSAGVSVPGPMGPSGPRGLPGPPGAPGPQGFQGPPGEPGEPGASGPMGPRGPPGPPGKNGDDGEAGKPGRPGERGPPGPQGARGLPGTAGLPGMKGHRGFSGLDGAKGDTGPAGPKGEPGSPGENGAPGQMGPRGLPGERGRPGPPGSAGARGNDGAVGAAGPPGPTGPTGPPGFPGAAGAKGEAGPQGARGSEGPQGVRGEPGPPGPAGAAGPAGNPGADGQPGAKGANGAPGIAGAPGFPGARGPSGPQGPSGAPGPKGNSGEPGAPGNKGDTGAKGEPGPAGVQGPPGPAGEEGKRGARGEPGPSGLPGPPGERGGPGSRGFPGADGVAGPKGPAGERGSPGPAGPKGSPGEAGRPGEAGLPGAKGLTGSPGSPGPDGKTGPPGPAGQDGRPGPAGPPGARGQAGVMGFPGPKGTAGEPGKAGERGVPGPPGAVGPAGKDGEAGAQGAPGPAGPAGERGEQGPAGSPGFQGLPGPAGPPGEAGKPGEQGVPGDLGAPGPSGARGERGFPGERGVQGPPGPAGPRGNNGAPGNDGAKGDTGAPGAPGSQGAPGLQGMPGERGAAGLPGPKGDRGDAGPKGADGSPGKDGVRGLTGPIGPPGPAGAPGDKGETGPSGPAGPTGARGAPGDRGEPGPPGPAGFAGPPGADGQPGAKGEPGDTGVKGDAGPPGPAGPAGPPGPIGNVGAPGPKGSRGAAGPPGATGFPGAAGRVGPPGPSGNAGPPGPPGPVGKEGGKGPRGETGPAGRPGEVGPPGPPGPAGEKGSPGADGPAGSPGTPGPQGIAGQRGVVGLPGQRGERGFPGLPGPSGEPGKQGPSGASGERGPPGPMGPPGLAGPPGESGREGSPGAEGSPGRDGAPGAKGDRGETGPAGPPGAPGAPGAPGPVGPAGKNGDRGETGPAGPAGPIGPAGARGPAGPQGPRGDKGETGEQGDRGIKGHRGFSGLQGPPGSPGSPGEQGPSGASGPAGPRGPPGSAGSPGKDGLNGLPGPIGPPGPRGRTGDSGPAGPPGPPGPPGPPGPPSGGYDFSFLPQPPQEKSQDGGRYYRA
Sequence (chain, as listed by the source, chain 2 of 2): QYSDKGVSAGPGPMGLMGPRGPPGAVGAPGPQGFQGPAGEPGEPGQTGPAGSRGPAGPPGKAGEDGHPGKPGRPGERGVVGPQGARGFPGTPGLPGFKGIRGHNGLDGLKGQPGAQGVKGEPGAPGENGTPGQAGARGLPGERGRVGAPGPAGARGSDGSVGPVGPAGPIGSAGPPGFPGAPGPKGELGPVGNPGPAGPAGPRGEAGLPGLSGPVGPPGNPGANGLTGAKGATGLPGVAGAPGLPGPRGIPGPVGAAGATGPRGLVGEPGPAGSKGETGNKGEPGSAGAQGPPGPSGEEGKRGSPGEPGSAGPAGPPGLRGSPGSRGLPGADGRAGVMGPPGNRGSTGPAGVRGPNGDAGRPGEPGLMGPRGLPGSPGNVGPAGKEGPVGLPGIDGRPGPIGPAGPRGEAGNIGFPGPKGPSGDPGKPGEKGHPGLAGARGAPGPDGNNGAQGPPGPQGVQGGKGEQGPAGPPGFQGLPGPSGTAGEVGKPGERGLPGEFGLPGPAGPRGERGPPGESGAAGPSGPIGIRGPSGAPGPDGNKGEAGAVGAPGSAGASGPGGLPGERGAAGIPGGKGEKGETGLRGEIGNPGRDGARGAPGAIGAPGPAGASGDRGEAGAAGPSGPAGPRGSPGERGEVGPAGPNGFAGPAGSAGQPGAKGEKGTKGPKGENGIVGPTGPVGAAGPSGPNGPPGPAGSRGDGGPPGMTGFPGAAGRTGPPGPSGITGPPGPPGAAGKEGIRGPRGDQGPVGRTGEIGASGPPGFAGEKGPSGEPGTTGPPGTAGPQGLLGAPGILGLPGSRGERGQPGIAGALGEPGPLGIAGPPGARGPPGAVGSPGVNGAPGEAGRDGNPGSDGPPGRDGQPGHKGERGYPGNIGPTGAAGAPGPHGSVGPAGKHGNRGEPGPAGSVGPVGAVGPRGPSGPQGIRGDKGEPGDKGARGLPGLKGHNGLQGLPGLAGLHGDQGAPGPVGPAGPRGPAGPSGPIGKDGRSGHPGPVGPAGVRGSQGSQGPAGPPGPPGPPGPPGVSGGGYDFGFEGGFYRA

B1: recombinant human MMP1 (wild-type), secreted by AdhGRE.MMP1-infected HTM cells and activated with APMA (active form, 41 kDa) (protein)
chain: FVLTEGNPRWEQTHLTYRIENYTPDLPRADVDHAIEKAFQLWSNVTPLTFTKVSEGQADIMISFVRGDHRDNSPFDGPGGNLAHAFQPGPGIGGDAHFDEDERWTNNFREYNLHRVAAHELGHSLGLSHSTDIGALMYPSYTFSGDVQLAQDDIDGIQAIYGRSQNPVQPIGPQTPKACDSKLTFDAITTIRGEVMFFKDRFYMRTNPFYPEVELNFISVFWPQLPNGLEAAYEFADRDEVRFFKGNKYWAVQGQNVLHGYPKDIYSSFGFPRTVKHIDAALSEENTGKTYFFVANKYWRYDEYKRSMDPGYPKMIAHDFPGIGHKVDAVFMKDGFFYFFHGTRQYKFDPKTKRILTLQKANSWFNCRKN
- digestion of native rat tail collagen type I (PAGE gel, Coomassie stain): digested native collagen type I into smaller fragments
